Sequences and labels used below:
B1: h5A10-DFO (antibody, human IgG1, kappa, V domains shown)
VH: QVTLKESGPALVKPTQTLTLTCTFSGFSLSTTGMGVSWIRQPPGKALEWLAHIYWDDDKRYSTSLKTRLTISEDSSKNQVVLTMTNMDPVDTATYYCARKGYYGYFDYWGQGTLVTVSS
VL: DIQMTQSPSSLSASVGDRVTVTCRASQNVNTDVAWYQQKPGKAPKALIFSTSYLQSGVPSRFSGSGSGTDFTLTISSLQPEDFATYYCQQYSNYPLTFGQGTKVEIKR
modifications: DFO (deferoxamine) chelator conjugated to the antibody; sites and chain not stated
notes: Humanised 5A10 IgG1/kappa conjugated with the chelator DFO; also called h5A10-DFO (141203)
B2: h5A10-DOTA (antibody, human IgG1, kappa, V domains shown)
VH: B1 VH
VL: B1 VL
modifications: DOTA chelator conjugated to the antibody; sites and chain not stated
notes: Humanised 5A10 IgG1/kappa conjugated with the chelator DOTA; also called h5A10-DOTA (141211)
B3: h5A10-DTPA (antibody, human IgG1, kappa, V domains shown)
VH: B1 VH
VL: B1 VL
modifications: DTPA chelator conjugated to the antibody; sites and chain not stated
notes: Humanised 5A10 IgG1/kappa conjugated with the chelator DTPA; also called h5A10-DTPA (141203); DTPA-h5A10
B4: humanised monoclonal antibody 5A10 (h5A10) (antibody, human IgG1, kappa, V domains shown)
VH: B1 VH
VL: B1 VL
notes: also called hu5A10 (141203); h5A10 (141203)

T1 sequence (P07288 25-261 limits assumed): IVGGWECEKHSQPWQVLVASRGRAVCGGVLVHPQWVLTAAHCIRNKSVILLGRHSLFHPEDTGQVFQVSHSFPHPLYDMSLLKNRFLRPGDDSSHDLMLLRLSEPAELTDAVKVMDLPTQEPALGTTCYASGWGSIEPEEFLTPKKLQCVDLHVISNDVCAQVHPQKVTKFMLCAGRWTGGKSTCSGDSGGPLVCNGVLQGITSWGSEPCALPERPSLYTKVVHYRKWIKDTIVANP

The experiment addresses T1, prostate specific antigen (PSA) (human, UniProt P07288 25-261, limits assumed).
T1 construct: The antigen of the SPR study is only called 'PSA' (169 ug/ml, provided by Diaprost AB, Mw 30 000 Da); also called kallikrein III
The experiment is described as follows: SPR (Biacore 3000), PSA amine-coupled on CM4 chip, antibody in solution. Here is the method: All binding experiments were performed on CM4 chip on a Biacore™ 3000 instrument. The chip and all the reagents needed for activation, immobilization, deactivation, binding and regeneration were purchased from GE Healthcare and used according to the guidelines from the manufacturer.
The dissociation phase data was fitted and the dissociation rate constants (koff) were estimated (see Table 1). [0279] (e) Estimation of the association rate constant (kₒₙ)
In order to estimate the association rate constants, the dissociation rate constants (Table 1) were used in the fitted equations. [0281] (f) Estimation of the dissociation constant (kD)
Molecule B1 had a Kd of 0.05 nM, a koff of 8.3e-06 s⁻¹ and a kon of 170000 M⁻¹ s⁻¹.
The matching figures for B2: 0.02 nM, 1.17e-05 s⁻¹ and 540000 M⁻¹ s⁻¹.
The matching figures for B3: 0.01 nM, 4.8e-06 s⁻¹ and 390000 M⁻¹ s⁻¹.
The matching figures for B4: 0.01 nM, 4.8e-06 s⁻¹ and 620000 M⁻¹ s⁻¹.

For the origin of these results see patent US20220242969A1 (FREDAX, published 2022).
